The results in this text go back to patent publication US20240092849A1 (MIT, published 2024).

Bridge positions count the residues as written; N and C are the ends. Square brackets hold non-standard residues; d marks the D form. Ends that are not written are not given here. alpha‑4‑pentenylAla = alpha-4-pentenyl alanine, stapling residue joined by ring-closing olefin metathesis; Cha = N[C@@H](CC1CCCCC1)C(=O)O; Nle = CCCC[C@H](N)C(=O)O; Aib = CC(C)(N)C(=O)O

Assay [1] deals with T1, Mcl-1 (human, UniProt Q07820 172-327, limits assumed).
T1 construct: Recombinant protein in solution assays; It was biotinylated in the on-bead screens; also called human Mcl-1; BioMcl-1 (biotinylated, in the bead screens)
T1 sequence (Q07820 172-327 limits assumed): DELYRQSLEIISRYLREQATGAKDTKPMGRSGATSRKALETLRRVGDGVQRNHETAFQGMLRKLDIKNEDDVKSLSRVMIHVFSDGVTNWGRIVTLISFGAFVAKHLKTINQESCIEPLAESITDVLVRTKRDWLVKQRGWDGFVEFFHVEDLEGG
Briefly: fluorescence anisotropy competition with fluoresceinated Bim 21mer for Mcl-1. From the text:
The standard errors reported are over three experiments.
Position 2e is usually conserved as small (alanine, glycine, serine) in natural BH3 sequences.
Background: In fluorescence polarisation assays a small probe gives low polarisation when free and higher when bound to something large.

The target of assay [2] is murine Mcl-1 (murine, UniProt P97287 1-331). The assay can be described thus: cell-based or functional assay.
Sequence of murine Mcl-1 (P97287 whole entry): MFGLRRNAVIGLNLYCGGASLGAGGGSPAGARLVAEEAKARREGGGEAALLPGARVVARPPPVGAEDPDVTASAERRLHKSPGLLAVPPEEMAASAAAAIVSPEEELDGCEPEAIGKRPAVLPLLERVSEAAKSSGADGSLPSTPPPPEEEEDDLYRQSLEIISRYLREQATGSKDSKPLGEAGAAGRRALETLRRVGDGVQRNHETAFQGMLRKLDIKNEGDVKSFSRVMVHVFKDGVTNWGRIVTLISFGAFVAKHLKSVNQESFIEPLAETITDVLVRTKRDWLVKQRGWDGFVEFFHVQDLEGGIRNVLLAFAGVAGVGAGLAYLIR
Assay [3] concerns the target T1, Mcl-1. Briefly: biolayer interferometry, biotinylated peptide on streptavidin probe. An excerpt:
We used biolayer interferometry to measure the kinetics of binding of stapled peptides to Mcl-1 (FIG. 1(b)). We generated biotinylated stapled peptides and attached these to a streptavidin-modified probe surface.
A general note: Biolayer interferometry detects binding as a change in optical thickness at a sensor tip.

As for IW[Nle][Aib]QGLRRLGDEI[alpha‑4‑pentenylAla]AYY[alpha‑4‑pentenylAla]RR (staple 15-19, Stapled peptide IWBAibQGLRRLGDEIXAYYXRR) [M2d], the IC50 – broadly, the midpoint of a concentration-inhibition curve – in assay [1] was determined as 106 nM. This counts as sub-micromolar.

B1: M1d (peptide)
peptide: IW[Nle]TQGLRRLGDEI[alpha‑4‑pentenylAla]AYY[alpha‑4‑pentenylAla]RR
modifications: staple 15-19
notes: Truncated, stapled variant of MS1, usually printed 'Mld'; also called Mld
In the case of B1, the IC50 in assay [1] amounted to 350 nM.

B2: M3d (peptide)
peptide: IW[Nle][Aib]QG[Cha]RRLGDEI[alpha‑4‑pentenylAla]AYY[alpha‑4‑pentenylAla]RR
modifications: staple 15-19
notes: Stapled peptide IWBAibQGChaRRLGDEIXAYYXRR
Consider B2, for which, in assay [2], the “BH3 profiling (mitochondrial membrane integrity, JC1 dye) in Mcl-1/Myc 2640 cells, EC50” value was 30 nM. Further, the IC50 in assay [1] turned out to be 72 nM.

B3: biotinylated M3d (peptide)
peptide: IW[Nle][Aib]QG[Cha]RRLGDEI[alpha‑4‑pentenylAla]AYY[alpha‑4‑pentenylAla]RR
modifications: staple 15-19; also: biotinylated, site and linker not given here
notes: also called M3d (biotinylated stapled peptide)
For the molecule B3, the Kd (usually the constant that tells how readily two partners part at equilibrium) in assay [3] worked out at 5 nM.
